B1: TRIB1 (parent)
chain: SYVRSRKRLREEEAARLFKQIVSA
B2: TRIM35 (parent)
chain: DKELLCCSCQADPRHQGHRVQPVK

Variants of: B1
Assay: protein stability index of a GFP-peptide fusion (GPS, HEK-293T) (PSI 1-6); higher = more stable
Conditions: c terminus: a fixed tail appended
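Also: lentivirally expressed fusions sorted by FACS into six bins by GFP to DsRed ratio, PSI derived from sequencing read proportions per bin multiplied by bin number.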

Protein stability index, by site and new letter:
E12: T 2.03 | V 1.33 | Y 2.37
E13: A 1.27 | C 2.05 | D 1.73 | F 2.37 | G 3.21 | H 2.47 | I 2.52 | K 2.94 | L 2.54 | M 2.21 | N 2.53 | P 2.41 | Q 2.5 | R 2.85 | S 2.05 | T 1.74 | V 1.65 | Y 2.14
A14: C 2.24 | D 1.59 | E 2.85 | F 2.34 | G 3.38 | H 2.26 | I 2.4 | K 2.64 | L 2.03 | M 1.81 | N 1.89 | P 2.56 | Q 2.99 | R 3.17 | S 3.24 | T 2.83 | V 2.09 | W 2.11 | Y 2.18
A15: C 1.93 | D 2.32 | E 2.56 | F 1.59 | G 2.56 | H 2.08 | I 1.4 | K 1.96 | L 2.05 | M 2.68 | N 2.48 | P 3.43 | Q 2.15 | R 2.62 | S 2.36 | T 2.08 | V 1.84 | W 1.74 | Y 1.71
R16: A 1.9 | C 2.01 | D 2.17 | E 2.87 | F 2.66 | G 2.41 | H 2.2 | I 1.37 | K 2.31 | L 1.93 | M 2.52 | N 2.58 | P 3.39 | Q 2.63 | S 1.72 | T 2.57 | V 2.53 | Y 2.32
L17: A 2.49 | C 2.52 | D 3.46 | E 3.46 | F 1.6 | G 3.72 | H 2.48 | K 2.61 | M 2.03 | N 3.21 | P 3.97 | Q 2.1 | R 2.1 | S 2.62 | T 2.87 | V 2.98 | W 2.24 | Y 2.61
F18: A 3.44 | C 3.31 | D 3.83 | E 3.02 | G 3.92 | H 4.19 | I 2.06 | L 1.52 | M 3.34 | N 3.1 | P 3.99 | Q 4.07 | R 3.74 | S 3.42 | T 3.84 | V 2.86 | W 2.56 | Y 2.08
K19: C 2.34 | D 2.25 | E 2.06 | F 2.71 | H 1.69 | I 2.91 | L 1.33 | M 2.43 | N 1.7 | P 2.81 | Q 2.21 | R 1.85 | S 2.31 | T 2.04 | Y 2.02
Q20: A 1.8 | C 1.43 | D 2.08 | E 2.4 | F 1.61 | G 2.52 | H 1.54 | I 1.43 | K 2.15 | L 1.32 | M 2.17 | N 2.64 | P 3.03 | R 1.95 | S 2.27 | T 2.37 | V 1.04 | W 1.46 | Y 1.13
I21: D 4.08 | E 3.23 | F 2.2 | H 2.4 | K 3.27 | L 1.39 | M 2.47 | N 4.01 | P 3.76 | Q 2.06 | R 3.8 | S 3.66 | T 3.48 | V 2.34 | W 3.98 | Y 2.06
V22: A 2.58 | C 2.13 | D 3.22 | F 1.83 | G 3.11 | H 2.23 | I 2.94 | L 2.54 | M 2.45 | N 2.86 | P 3.72 | Q 3.34 | R 3.3 | S 2.62 | T 2.94 | W 3.04 | Y 1.49
S23: A 2.01 | C 1.63 | D 3.05 | E 2.56 | F 2.07 | G 1.9 | H 1.8 | I 1.48 | K 2.3 | L 2.18 | M 2.87 | N 2.32 | P 2.99 | Q 1.94 | R 1.99 | T 1.75 | W 1.07 | Y 1.73
A24: C 2.99 | D 2.76 | E 1.99 | F 2.26 | G 3.39 | H 2.58 | I 2.88 | K 2.97 | L 1.65 | M 1.14 | N 3.37 | P 2.63 | Q 2.18 | R 2.01 | S 2.08 | T 2.47 | V 2.61 | W 2 | Y 2.32

Variants of: B2
Assay: as above
Conditions: c terminus: a fixed tail appended

Protein stability index: each site, then its substitutions
D1: A 3.15 | C 3.49 | E 4.13 | F 2.79 | H 3.02 | I 2.38 | K 3.46 | M 3.67 | N 3.77 | P 3.49 | Q 3.59 | R 2.71 | S 3.31 | T 3.71 | V 3.06 | W 1.87 | Y 2.11
K2: A 3.54 | C 4.2 | D 3.46 | E 4.01 | F 2.63 | G 3.05 | H 3.51 | I 2.84 | L 3.18 | M 3.65 | N 3.95 | P 3.19 | Q 3.78 | R 3.12 | S 3.87 | T 3.79 | V 3.53 | W 4.1 | Y 3.2
E3: A 2.92 | C 2.26 | D 3.4 | F 2.34 | G 2.43 | H 2.47 | I 2.51 | K 3.52 | L 2.11 | M 2.12 | N 3.68 | P 3.09 | Q 3.73 | R 2.81 | S 3.94 | T 3.72 | V 2.45 | W 1.93 | Y 2.46
L4: A 3.86 | C 4.27 | D 4.47 | E 3.41 | F 3.31 | G 4.47 | H 4.08 | I 2.52 | K 4.07 | M 3.9 | N 2.58 | P 3.85 | Q 4.36 | R 3.7 | S 3.8 | T 4.13 | V 4.33 | W 2.68 | Y 3.8
L5: A 3.65 | C 3.88 | D 4.43 | E 4.08 | F 3.55 | H 3.91 | I 3.76 | K 3.58 | M 3.11 | N 2.66 | P 4.36 | Q 4.36 | R 3.32 | S 4.44 | T 4.29 | W 3.18 | Y 2.93
C6: A 3.61 | D 5.31 | E 4.3 | F 2.99 | H 4.45 | I 2.61 | K 4.36 | L 3.41 | M 3.74 | N 3.87 | P 3.64 | R 3.54 | S 3.73 | T 3.76 | V 2.25 | W 2.29 | Y 3
C7: A 4.12 | D 4.67 | E 4.44 | F 3.38 | G 4.23 | H 4.03 | I 3.29 | K 3.88 | L 3.66

Reference: the supplement of paper PMC10567573
